This note sets out measurements from publication PMC2699623 (Structure (London, England : 1993), 2009).

Data set [1] concerns the target ALIXV, the middle domain (V-domain) of ALIX (monomeric form) (UniProt Q8WUM4). In words: SEC-MALS.
Data set [2] has as its target ALIX_(Bro1-V), ALIX lacking the proline rich domain (monomeric form). The data set can be described thus: SEC-MALS.
Data set [3] deals with peptide derived from EIAV Gag p9 (equine infectious anemia virus (EIAV)). The data set can be described thus: ITC.
Data set [4] deals with the molecule itself. In words: SEC-MALS. In general terms: SEC sorts molecules by how far they enter the pores of the column.

As for “ALIXV, the middle domain (V-domain) of ALIX (monomeric form) (from UniProt Q8WUM4 360-702) (domain or fragment)”, in data set [1], the stoichiometry N – broadly, a count of units in the complex or per binding partner – came to 2.
Molecule “ALIX_(Bro1-V), ALIX lacking the proline rich domain (monomeric form) (domain or fragment)” had a stoichiometry N in data set [2] of 2.
Turning to “dimeric ALIXV (from UniProt Q8WUM4 360-702) (complex)”, the Kd (commonly a measure of binding affinity in units of concentration) in data set [3] came out at 8 µM.

B1: ALIX_(Vmut2) (domain or fragment)
chain: PVSVQQSLAAYNQRKADLVNRSIAQMREATTLANGVLASLNLPAAIEDVSGDTVPQSILTKSRSVIEQGGIQTVDQLIKELPELLQRNREILDESLRLLDEEEATDNDLRAKFKERWQRTPSNELYKPLRAEGTNFRTVLDKAVQADGQVKECYQSHRDTIVLLCKPEPELNAAIPSANPAKTMQGSEVVNVLKSLLSNLDEVKKEREGLENDLKSVNFDMTSKFLTALAQDGVINEEALSVTELDRVYGGLTTKVQESLKKQEGLLKNIQVSHQEFSKMKQSYKKANLREEVLKNLATAYDNFVELVANLKEGTKFYNELTEILVRFQNKCSDIVFARKTER
With B1, in data set [4], the “stoichiometry N” value was 2.
